Experimental data: paper PMC9482650, “Quantitative fragmentomics allow affinity mapping of interactomes” (Nature Communications, 2022)

Legend:
Experiment in all cases: holdup assay
Parameters in all cases: key: below the threshold = too weak to quantify, mostly under pKd 3.1 to 4
[1] = target: Inadl_2, Q8NI35
[2] = target: DLG1_2, Q12959
[3] = target: DLG4_3, P78352
[4] = target: T1, TIAM2, Q8IVF5
T1 sequence (Q8IVF5 885-986, limits assumed, looked up): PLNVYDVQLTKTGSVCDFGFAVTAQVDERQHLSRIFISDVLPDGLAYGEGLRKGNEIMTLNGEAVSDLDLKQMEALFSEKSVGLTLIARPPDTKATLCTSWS

[5] = target: DLG2_3, Q15700
[6] = target: T2, NHERF3_1, Q5T2W1
T2 sequence (Q5T2W1 4-100, limits assumed, looked up): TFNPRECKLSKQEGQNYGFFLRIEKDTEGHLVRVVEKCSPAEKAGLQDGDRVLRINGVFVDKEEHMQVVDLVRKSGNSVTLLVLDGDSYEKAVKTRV

[7] = target: SNX27, Q96L92
[8] = target: SCRIB_2, Q14160
[9] = target: PICK1, Q9NRD5
[10] = target: T3, SNTG2, Q9NY99
T3 sequence (Q9NY99 68-166, limits assumed, looked up): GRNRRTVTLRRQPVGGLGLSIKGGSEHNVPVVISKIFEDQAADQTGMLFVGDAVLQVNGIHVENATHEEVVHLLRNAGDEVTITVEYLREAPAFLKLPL

[11] = target: TJP1_3, Q07157
[12] = target: T4, MPDZ_5, O75970
T4 sequence (O75970 695-796, limits assumed, looked up): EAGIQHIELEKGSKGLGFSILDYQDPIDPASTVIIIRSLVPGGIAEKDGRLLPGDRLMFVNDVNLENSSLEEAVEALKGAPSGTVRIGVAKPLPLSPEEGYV

[13] = target: GRIP2_3, Q9C0E4
[14] = target: GOPC, Q9HD26
[15] = target: AHNAK1, Q09666
[16] = target: GORASP2, Q9H8Y8
[17] = target: NHERF4_1, Q86UT5-2
[18] = target: Inadl_3, Q8NI35
[19] = target: ARHGEF12, Q9NZN5-2
[20] = target: DLG5_1, Q8TDM6
[21] = target: T5, PARD3B_1, Q8TEW8
T5 sequence (Q8TEW8 196-299, limits assumed, looked up): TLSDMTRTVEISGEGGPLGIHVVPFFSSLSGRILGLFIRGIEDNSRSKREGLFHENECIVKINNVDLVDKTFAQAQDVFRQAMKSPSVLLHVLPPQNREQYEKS

[22] = target: DLG4_2, P78352
[23] = target: GRID2IP_2, A4D2P6
[24] = target: T6, SNTA1, Q13424
T6 sequence (Q13424 82-180, limits assumed, looked up): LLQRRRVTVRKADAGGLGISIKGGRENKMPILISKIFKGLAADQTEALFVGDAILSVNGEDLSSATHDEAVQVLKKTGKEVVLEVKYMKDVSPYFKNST

[25] = target: T7, SHANK1, Q9Y566
T7 sequence (Q9Y566 658-767, limits assumed, looked up): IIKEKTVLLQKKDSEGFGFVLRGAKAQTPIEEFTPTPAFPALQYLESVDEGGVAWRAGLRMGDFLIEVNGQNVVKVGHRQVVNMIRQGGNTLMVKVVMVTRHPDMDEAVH

[26] = target: IL16_3, Q14005
[27] = target: T8, DFNB31_2, Q9P202
T8 sequence (Q9P202 274-371, limits assumed, looked up): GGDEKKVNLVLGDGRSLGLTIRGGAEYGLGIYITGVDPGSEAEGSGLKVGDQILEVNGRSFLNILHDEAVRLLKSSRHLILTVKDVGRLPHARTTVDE

[28] = target: GRIP2_5, Q9C0E4
[29] = target: T9, APBA1_1, Q02410
T9 sequence (Q02410 651-752, limits assumed, looked up): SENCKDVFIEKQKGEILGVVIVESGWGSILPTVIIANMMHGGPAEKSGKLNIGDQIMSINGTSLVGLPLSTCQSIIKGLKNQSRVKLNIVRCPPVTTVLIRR

[30] = plain residues with an end cap or a label only (N-terminal biotin on a linker: ado-ado)
[31] = plain residues with an end cap or a label only (N-terminal biotin on a linker: ttds)
[32] = plain residues with an end cap or a label only (N-terminal biotin on a linker: ahx)

IL16_3, Q14005, sequence (Q14005 1107-1207): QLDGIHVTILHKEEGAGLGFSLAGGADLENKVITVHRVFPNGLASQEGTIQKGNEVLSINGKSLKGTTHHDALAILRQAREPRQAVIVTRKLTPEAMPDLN
PICK1, Q9NRD5, sequence (Q9NRD5 17-115): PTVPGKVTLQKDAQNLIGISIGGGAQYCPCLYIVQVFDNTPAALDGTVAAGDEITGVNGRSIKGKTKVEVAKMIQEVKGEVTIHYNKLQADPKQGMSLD
Inadl_3, Q8NI35, sequence (Q8NI35 359-469): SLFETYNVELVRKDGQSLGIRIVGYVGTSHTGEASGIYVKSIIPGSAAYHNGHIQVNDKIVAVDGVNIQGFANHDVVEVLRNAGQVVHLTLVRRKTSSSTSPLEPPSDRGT
GRID2IP_2, A4D2P6, sequence (A4D2P6 272-370): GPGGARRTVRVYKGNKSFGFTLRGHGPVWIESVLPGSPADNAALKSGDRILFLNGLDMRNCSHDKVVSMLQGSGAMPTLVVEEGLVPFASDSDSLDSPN
NHERF4_1, Q86UT5-2, sequence (Q86UT5 other isoform, or with tags, fused parts or gaps): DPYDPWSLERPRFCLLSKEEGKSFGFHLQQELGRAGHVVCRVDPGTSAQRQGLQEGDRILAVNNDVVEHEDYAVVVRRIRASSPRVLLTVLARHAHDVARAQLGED
DLG5_1, Q8TDM6, sequence (Q8TDM6 617-713): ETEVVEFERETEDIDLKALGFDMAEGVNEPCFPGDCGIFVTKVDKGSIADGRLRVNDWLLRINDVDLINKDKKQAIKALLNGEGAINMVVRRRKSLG
TJP1_3, Q07157, sequence (Q07157 416-512): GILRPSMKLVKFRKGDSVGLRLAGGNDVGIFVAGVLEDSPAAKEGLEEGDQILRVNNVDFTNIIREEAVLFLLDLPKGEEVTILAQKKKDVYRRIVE
SCRIB_2, Q14160, sequence (Q14160 857-960): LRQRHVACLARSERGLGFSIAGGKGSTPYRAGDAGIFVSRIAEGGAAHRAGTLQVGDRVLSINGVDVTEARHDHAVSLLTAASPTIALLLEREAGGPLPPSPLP
ARHGEF12, Q9NZN5-2, sequence (Q9NZN5 other isoform, or with tags, fused parts or gaps): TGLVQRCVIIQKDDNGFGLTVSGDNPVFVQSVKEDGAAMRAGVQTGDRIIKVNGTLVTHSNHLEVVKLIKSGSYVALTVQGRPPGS
DLG4_2, P78352, sequence (P78352 155-259): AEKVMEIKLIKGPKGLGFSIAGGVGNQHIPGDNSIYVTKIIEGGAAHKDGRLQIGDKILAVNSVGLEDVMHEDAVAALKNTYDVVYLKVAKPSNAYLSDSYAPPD
AHNAK1, Q09666, sequence (Q09666 4-100): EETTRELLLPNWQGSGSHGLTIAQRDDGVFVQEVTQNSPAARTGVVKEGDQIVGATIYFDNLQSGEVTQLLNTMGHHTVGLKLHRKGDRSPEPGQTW
DLG4_3, P78352, sequence (P78352 306-403): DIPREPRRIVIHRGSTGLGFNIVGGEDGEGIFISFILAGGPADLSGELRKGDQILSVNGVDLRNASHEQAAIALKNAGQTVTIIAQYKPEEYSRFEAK
GRIP2_5, Q9C0E4, sequence (Q9C0E4 544-642): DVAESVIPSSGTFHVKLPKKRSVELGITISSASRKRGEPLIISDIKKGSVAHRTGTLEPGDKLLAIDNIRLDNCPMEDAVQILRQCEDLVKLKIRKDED
GRIP2_3, Q9C0E4, sequence (Q9C0E4 238-339): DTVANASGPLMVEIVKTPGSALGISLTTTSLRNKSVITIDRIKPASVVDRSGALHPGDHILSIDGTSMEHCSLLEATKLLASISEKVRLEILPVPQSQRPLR
Inadl_2, Q8NI35, sequence (Q8NI35 238-335): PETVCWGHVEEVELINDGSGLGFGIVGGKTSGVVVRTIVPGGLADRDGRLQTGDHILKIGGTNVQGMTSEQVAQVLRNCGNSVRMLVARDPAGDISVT
DLG1_2, Q12959, sequence (Q12959 314-412): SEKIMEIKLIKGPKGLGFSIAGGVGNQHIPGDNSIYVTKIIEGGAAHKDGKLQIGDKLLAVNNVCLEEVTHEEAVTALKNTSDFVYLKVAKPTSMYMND

B1: DCHS2, Q6V1P9 (peptide)
chain: ELKAEDEVQI
pKd [1, 30]: below the threshold | pKd [2, 30]: below the threshold | pKd [3, 30]: below the threshold | pKd [4, 30]: 3.52 | pKd [5, 30]: below the threshold | pKd [6, 30]: below the threshold | pKd [7, 30]: below the threshold | pKd [8, 30]: below the threshold | pKd [9, 30]: 4.13 | pKd [10, 30]: below the threshold | pKd [11, 30]: below the threshold | pKd [12, 30]: below the threshold | pKd [13, 30]: below the threshold | pKd [14, 30]: below the threshold | pKd [15, 30]: below the threshold | pKd [16, 30]: below the threshold | pKd [17, 30]: below the threshold | pKd [18, 30]: below the threshold | pKd [19, 30]: below the threshold | pKd [20, 30]: below the threshold | pKd [21, 30]: 3.89 | pKd [22, 30]: below the threshold | pKd [23, 30]: below the threshold | pKd [24, 30]: below the threshold | pKd [25, 30]: below the threshold | pKd [26, 30]: below the threshold | pKd [27, 30]: below the threshold | pKd [28, 30]: below the threshold | pKd [29, 30]: below the threshold

B2: SLC15A5, A6NIM6 (peptide)
chain: SSIDLWETAL
pKd [1, 31]: below the threshold | pKd [2, 31]: 4.4 | pKd [3, 31]: below the threshold | pKd [4, 31]: below the threshold | pKd [5, 31]: 3.73 | pKd [6, 31]: 6.25 | pKd [7, 31]: 5.92 | pKd [8, 31]: 5.14 | pKd [9, 31]: below the threshold | pKd [10, 31]: 5.2 | pKd [11, 31]: below the threshold | pKd [12, 31]: below the threshold | pKd [13, 31]: below the threshold | pKd [14, 31]: 4.85 | pKd [15, 31]: below the threshold | pKd [16, 31]: below the threshold | pKd [17, 31]: 4.71 | pKd [18, 31]: 4.66 | pKd [19, 31]: 5.22 | pKd [20, 31]: below the threshold | pKd [21, 31]: 4.49 | pKd [22, 31]: 4.22 | pKd [23, 31]: 4.54 | pKd [24, 31]: 5.19 | pKd [25, 31]: 5.38 | pKd [26, 31]: below the threshold | pKd [27, 31]: below the threshold | pKd [28, 31]: below the threshold | pKd [29, 31]: below the threshold

B3: PDLIM2, Q96JY6 (peptide)
chain: SAPATLSSRA
pKd [1, 32]: below the threshold | pKd [2, 32]: below the threshold | pKd [3, 32]: below the threshold | pKd [4, 32]: below the threshold | pKd [5, 32]: below the threshold | pKd [6, 32]: below the threshold | pKd [7, 32]: below the threshold | pKd [8, 32]: below the threshold | pKd [9, 32]: below the threshold | pKd [10, 32]: below the threshold | pKd [11, 32]: below the threshold | pKd [12, 32]: below the threshold | pKd [13, 32]: below the threshold | pKd [14, 32]: below the threshold | pKd [15, 32]: below the threshold | pKd [16, 32]: below the threshold | pKd [17, 32]: below the threshold | pKd [18, 32]: 3.48 | pKd [19, 32]: below the threshold | pKd [20, 32]: below the threshold | pKd [21, 32]: below the threshold | pKd [22, 32]: below the threshold | pKd [23, 32]: below the threshold | pKd [24, 32]: below the threshold | pKd [25, 32]: below the threshold | pKd [26, 32]: below the threshold | pKd [27, 32]: below the threshold | pKd [28, 32]: below the threshold | pKd [29, 32]: below the threshold
